Experimental data from patent US20180118848A1.

What follows are substances tested against human MUC16 (mucin 16) (human) (assay: MSD ECL cell binding, RLU ratio OVCAR-3 vs SK-OV-3, […] Ab; NS = ratio <2.5-fold).

**Q.** How did the Ratio anti-MUC16 Binding OVCAR-3/SK-OV-3 turn out when hIgG1 Isotype Control Antibody was run?
**A.** < 2.5

**Q.** With mIgG1 Isotype Control Antibody as the substance, how does the Ratio anti-MUC16 Binding OVCAR-3/SK-OV-3 read?
**A.** < 2.5

**Q.** How did the Ratio anti-MUC16 Binding OVCAR-3/SK-OV-3 turn out when mIgG2a Isotype Control Antibody was run?
**A.** < 2.5
